Reference: the supplement of paper PMC9112550, “Optimization of the antimicrobial peptide Bac7 by deep mutational scanning” (BMC Biology, 2022)

The sequences below were run on Escherichia coli TOP10 (assay: shrunken log2 fold change of peptide-encoding DNA abundance (4.5 h post-induction vs induction); higher = less antimicrobial activity (less host growth inhibition)). Details: time post-induction: 4.5 h; library: site-saturation at positions 5, 18, 19, 20.
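Further: peptides expressed intracellularly from a pBAD plasmid library in pooled LB shake-flask culture, induced with 0.3% L-arabinose, DNA abundance read by NGS, three biological replicates, DESeq2 with apeglm shrinkage.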

Sequence	shrunken log2 fold change
RRIRNRPPRLPRPRPRPVTWPRP	-0.0637
RRIRLRPPRLPRPRPRPCCEPRP	0.812
RRIRHRPPRLPRPRPRPWWEPRP	-0.015
RRIRRRPPRLPRPRPRPICRPRP	0.378
RRIRVRPPRLPRPRPRPVKCPRP	-0.163
RRIRWRPPRLPRPRPRPCDKPRP	-0.217
RRIRERPPRLPRPRPRPTGQPRP	-0.0359
RRIRERPPRLPRPRPRPNLDPRP	-0.289
RRIRCRPPRLPRPRPRPPVRPRP	0.519
RRIRCRPPRLPRPRPRPCQVPRP	-0.342
RRIRERPPRLPRPRPRPLTKPRP	-0.0153
RRIRERPPRLPRPRPRPYSDPRP	-0.308
RRIRARPPRLPRPRPRPLGMPRP	0.0985
RRIRVRPPRLPRPRPRPHCWPRP	0.0268
RRIRIRPPRLPRPRPRPYMLPRP	-0.916
RRIRKRPPRLPRPRPRPLGMPRP	0.11
RRIRARPPRLPRPRPRPQEEPRP	0.0293
RRIRSRPPRLPRPRPRPNQCPRP	-0.215
RRIRPRPPRLPRPRPRPMHQPRP	0.059
RRIRCRPPRLPRPRPRPCGVPRP	0.0257
RRIRGRPPRLPRPRPRPALYPRP	0.363
RRIRRRPPRLPRPRPRPHFCPRP	0.00733
RRIRYRPPRLPRPRPRPFEKPRP	0.021
RRIRSRPPRLPRPRPRPSVQPRP	-0.0563
RRIRKRPPRLPRPRPRPAPSPRP	0.748

Sequence	shrunken log2 fold change
RRIRNRPPRLPRPRPRPYSVPRP	-0.0155
RRIRMRPPRLPRPRPRPSNAPRP	0.405
RRIRVRPPRLPRPRPRPAFMPRP	-0.352
RRIRGRPPRLPRPRPRPLYRPRP	1.11
RRIRCRPPRLPRPRPRPIQAPRP	0.0936
RRIRERPPRLPRPRPRPAYTPRP	-0.284
RRIRCRPPRLPRPRPRPSWLPRP	-0.547
RRIRMRPPRLPRPRPRPQRMPRP	0.583
RRIRPRPPRLPRPRPRPQFTPRP	-0.285
RRIRLRPPRLPRPRPRPRETPRP	-0.0213
RRIRERPPRLPRPRPRPSLEPRP	-0.199
RRIRKRPPRLPRPRPRPWDVPRP	0.0155
RRIRVRPPRLPRPRPRPTAPPRP	0.175
RRIRYRPPRLPRPRPRPRTSPRP	-0.169
RRIRGRPPRLPRPRPRPQYPPRP	-0.865
RRIRFRPPRLPRPRPRPWCMPRP	-0.214
RRIRTRPPRLPRPRPRPPAQPRP	0.608
RRIRIRPPRLPRPRPRPYQCPRP	-0.349
RRIRPRPPRLPRPRPRPHRDPRP	-0.0367
RRIRIRPPRLPRPRPRPPRCPRP	0.0758
RRIRIRPPRLPRPRPRPEVMPRP	-0.195
RRIRIRPPRLPRPRPRPELFPRP	0.23
RRIRCRPPRLPRPRPRPEHIPRP	-0.218
RRIRFRPPRLPRPRPRPMFHPRP	-0.473
RRIRIRPPRLPRPRPRPYPWPRP	-1.06
